Measured values as given in US20240317834A1, “COMPOSITIONS AND METHODS FOR NEUROLOGICAL DISEASES” (CODA BIOTHERAPEUTICS, INC., priority 2020, published 2024).

Columns and labels:
rat DRG neurons = assay: Rheobase shift and evoked action potentials in rat DRG neurons (current clamp); type: cell-based
Procedure: Using whole cell manual patch clamp electrophysiology in HEK293 cells, rat DRG neurons and rat hippocampal neurons, the EC50 of the various engineered receptors disclosed herein to Ach and non-native ligands was measured using the Hill equation with peak current measurements from escalating doses of ligand. The rheobase shift was also measured in rat DRG neurons, which reflects the efficacy of the receptors. To calculate the rheobase, first, the amount of current that can produce an action potential was determined. Then the ligand was added, followed by a step wise increase in the current injected up to 700 pA.
For manual patch clamp experiments, Cells plated on coverslips were visualized at 10× and 40× on an inverted fluorescence microscope (Olympus). Recordings were made with an Axopatch 200B amplifier and Digidata 1550B (Molecular Devices) at RT using 3-6 MOhm glass patch electrodes (Sutter, BF150-86-10). Unless otherwise stated, recordings were made in extracellular solution (ECS) containing: 140 mM sodium chloride, 4 mM potassium chloride, 1 mM magnesium chloride, 2 mM calcium chloride, 10 mM HEPES, and 10 mM D-(+)-glucose (pH=7.3 with sodium hydroxide, osmolarity=305−315 mOsm). An 8-line reservoir (AutoMate Scientific) in combination with an 8-channel zero-dead-volume perfusion pencil (AutoMate Scientific) was used for perfusion. Data was acquired using pClamp software (Molecular Devices). Traces were either analyzed in Clampfit (Molecular Devices) or using custom Python code. Plotting and statistics were performed in GraphPad Prism.
DRG rheobase experiments were performed in current clamp mode using a potassium-based internal solution containing: 100 mM potassium D-gluconate, 28 mM potassium chloride, 1 mM magnesium chloride hexahydrate, 5 mM magnesium ATP, 10 mM HEPES, and 0.5 mM EGTA (pH=7.2 with potassium hydroxide, osmolarity=290-295 mOsm, calculated liquid junction potential=−13.5 mV). To measure DRG input resistance and rheobase, 500 ms current steps (−200 pA to 700 pA) were applied the membrane in the presence and absence of a compound. No holding current was applied to the membrane for cells included in the final datasets. Data were acquired at 10 kHz, with Bessel filter at 2 kHz and series resistance compensation at 100%. Rheobase was defined as the smallest depolarizing current injection required to cause an action potential to fire in the cell. In a subset of cells, the rheobase was ambiguous, since the action potential appeared to be graded in amplitude. In these cases, a […] of the trace clarified the rheobase. Input resistance was measured from the negative current injections, calculated as the difference in membrane potential at steady state divided by the current injection amplitude and then averaged across the four negative current steps for each recording. Resting membrane potential was measured from the first 100 ms of each sweep, averaged for each recording, and corrected for liquid junction potential. One-way ANOVA with multiple comparisons was used to test for significance of difference in rheobase and input resistance between baseline, drug, and wash conditions.

Lenti-X 293T cells = assay: YFP fluorescence quenching anion reporter plate reader assay of engineered receptors stimulated with acetylcholine or a non-native ligand; type: cell-based
Outline: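 YFP quench was followed for about 1 min 43 s after ligand delivered in iodide-based ECS, pH 7.2. Values are end-of-read fluorescence (last 10 s) divided by the pre-ligand baseline (15 s). Cells were LX293T, transfected with receptor DNA a day before the assay.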

B1: CODA1048: engineered chimeric LGIC receptor, R101F, Y210F in SEQ ID NO: 33 (protein)
chain: MRCSPGGVWLALAASLLHVSLQGEFQRKLYKELVKNYNPLERPVANDSQPLTVYFSLSLLQIMDVDEKNQVLTTNIWLQMSWTDHYLQWNVSEYPGVKTVFFPDGQIWKPDILLYNSADERFDATFHTNVLVNSSGHCQYLPPGIFKSSCPMDLKNFPMDVQTCKLKFGSWSYGGWSLDLQMQEADISGYIPNGEWDLVGIPGKRSERFFECCKEPYPDVTFTVTMRRRMGYYLIQMYIPSLLIVILSWISFWINMDAAPARVGLGITTVLTMTTQSSGSRASLPKVSYVKAIDIWMAVCLLFVFSALLEYAAVNFVSRQHKELLRFRRKRRHHKSPMLNLFQEDEAGEGRFNFSAYGMGPACLQAKDGISVKGANNSNTTNPPPAPSKSPEEMRKLFIQRAKKIDKISRIGFPMAFLIFNMFYWIIYKIVRREDVHNQ
modifications: synthetic sequence of chimeric LGIC
Rheobase Shift; Rat DRG Neurons, +TC-5619 @ EC90 (rat DRG neurons; +TC-5619 @ EC90): 590 ± 46 pA
Rheobase Shift; Rat DRG Neurons, Baseline (rat DRG neurons; Baseline, no ligand): 120 ± 19 pA
YFP fluorescence quenching using CNL001 (Lenti-X 293T cells; 1 nM CNL001, first column): 9.114%
YFP fluorescence quenching using CNL001 (Lenti-X 293T cells; 1 nM CNL001, second column): 0.845%
YFP fluorescence quenching using TC-5619/Bradanicline (Lenti-X 293T cells; 1 nM brd): −2.084%
YFP fluorescence quenching using TC-5619/Bradanicline (Lenti-X 293T cells; 3 nM brd): −9.098%
YFP fluorescence quenching using Varenicline (Lenti-X 293T cells; 3 nM var, first column): −17.119
YFP fluorescence quenching using Varenicline (Lenti-X 293T cells; 3 nM var, second column): −13.234
YFP fluorescence quenching using CNL001 (Lenti-X 293T cells; 10 nM CNL001, first column): 28.944%
YFP fluorescence quenching using CNL001 (Lenti-X 293T cells; 10 nM CNL001, second column): 53.629%
YFP fluorescence quenching using TC-5619/Bradanicline (Lenti-X 293T cells; 10 nM brd): −2.587%
YFP fluorescence quenching using TC-5619/Bradanicline (Lenti-X 293T cells; 30 nM brd): 55.818%
YFP fluorescence quenching using Varenicline (Lenti-X 293T cells; 30 nM var, first column): −7.747
YFP fluorescence quenching using Varenicline (Lenti-X 293T cells; 30 nM var, second column): 4.193
YFP fluorescence quenching using CNL001 (Lenti-X 293T cells; 50 nM CNL001, first column): 68.581%
YFP fluorescence quenching using CNL001 (Lenti-X 293T cells; 50 nM CNL001, second column): 74.379%
YFP fluorescence quenching using ABT-126 (Lenti-X 293T cells; 50 nM abt): −23.28%
YFP fluorescence quenching using CNL001 (Lenti-X 293T cells; 100 nM CNL001, first column): 80.541%
YFP fluorescence quenching using CNL001 (Lenti-X 293T cells; 100 nM CNL001, second column): 80.774%
YFP fluorescence quenching using ABT-126 (Lenti-X 293T cells; 100 nM abt): −21.78%
YFP fluorescence quenching using TC-5619/Bradanicline (Lenti-X 293T cells; 100 nM brd): 76.957%
YFP fluorescence quenching using ABT-126 (Lenti-X 293T cells; 300 nM abt): −19.35%
YFP fluorescence quenching using TC-5619/Bradanicline (Lenti-X 293T cells; 300 nM brd): 74.268%
YFP fluorescence quenching using Varenicline (Lenti-X 293T cells; 300 nM var, first column): 4.149
YFP fluorescence quenching using Varenicline (Lenti-X 293T cells; 300 nM var, second column): 1.512
YFP fluorescence quenching using Varenicline (Lenti-X 293T cells; 500 nM var, first column): −1.572
YFP fluorescence quenching using Varenicline (Lenti-X 293T cells; 500 nM var, second column): 3.71
YFP fluorescence quenching using CNL001 (Lenti-X 293T cells; 1 uM CNL001, first column): 83.143%
YFP fluorescence quenching using CNL001 (Lenti-X 293T cells; 1 uM CNL001, second column): 81.751%
YFP fluorescence quenching using ABT-126 (Lenti-X 293T cells; 1 uM abt): −16.33%
YFP fluorescence quenching using Varenicline (Lenti-X 293T cells; 1 uM var, first column): 8.414
YFP fluorescence quenching using Varenicline (Lenti-X 293T cells; 1 uM var, second column): 4.091
percent quench of YFP fluorescence, 30 nM TC-6683 (Lenti-X 293T cells; TC-6683 30 nM): −29.055%
percent quench of YFP fluorescence, 300 nM TC-6683 (Lenti-X 293T cells; TC-6683 300 nM): −33.935%
percent quench of YFP fluorescence, 3 uM TC-6683 (Lenti-X 293T cells; TC-6683 3 uM): −24.613%
percent quench of YFP fluorescence, 30 uM TC-6683 (Lenti-X 293T cells; TC-6683 30 uM): −21.752%
percent quench of YFP fluorescence, 100 uM TC-6683 (Lenti-X 293T cells; TC-6683 100 uM): −22.815%
percent quench of YFP fluorescence, 100 uM ach (Lenti-X 293T cells; acetylcholine 100 uM): −17.31%
percent quench of YFP fluorescence, 300 uM ach (Lenti-X 293T cells; acetylcholine 300 uM): −13.7%
percent quench of YFP fluorescence, 500 uM ach (Lenti-X 293T cells; acetylcholine 500 uM): −10.1%
percent quench of YFP fluorescence, 1 mM ach (Lenti-X 293T cells; acetylcholine 1 mM): 5.53%
percent quench of YFP fluorescence, 3 mM ach (Lenti-X 293T cells; acetylcholine 3 mM): 68.61%
percent quench of YFP fluorescence, 10 mM ach (Lenti-X 293T cells; acetylcholine 10 mM): 78.22%
